The target of assay [1] is T1, human CCR9 (C-C chemokine receptor type 9) (human, UniProt P51686 1-369).
T1 sequence: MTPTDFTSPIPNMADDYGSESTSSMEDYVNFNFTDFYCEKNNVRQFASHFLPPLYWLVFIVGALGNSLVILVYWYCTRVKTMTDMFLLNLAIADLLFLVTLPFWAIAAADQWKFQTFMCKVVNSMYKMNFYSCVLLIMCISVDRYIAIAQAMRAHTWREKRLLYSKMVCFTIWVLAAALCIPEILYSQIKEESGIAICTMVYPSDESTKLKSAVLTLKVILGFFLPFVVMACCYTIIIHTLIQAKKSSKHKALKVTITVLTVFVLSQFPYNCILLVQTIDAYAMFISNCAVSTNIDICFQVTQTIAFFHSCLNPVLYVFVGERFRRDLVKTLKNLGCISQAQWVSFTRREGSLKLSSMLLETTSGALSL
Briefly: cell-based or functional assay.

Assay [2] deals with T1, human CCR9 (C-C chemokine receptor type …). Briefly: flow cytometry on MOLT-4 cells, unlabeled antibody, n=1. A general note: Flow cytometry measures light scatter and fluorescence of single cells or particles in a stream.
Assay [3] shares this target. In words: flow cytometry on MOLT-4 cells; antibody incubated 4 days at 23°C.
For assay [4] the target is unchanged. Briefly: flow cytometry on MOLT-4 cells; antibody incubated 4 days at 40°C.
The target is the same in assay [5]. In words: flow cytometry on MOLT-4 cells; antibody kept 4 days at 4°C (control).
Assay [6] has the same target. In words: flow cytometry on CCR9-expressing MOLT-4 cells, PE anti-human Fc, mean ± SD, n=3.
Assay [7] shares this target. In words: flow cytometry on huCCR9-expressing HEK293 cells, PE anti-human Fc, mean ± SD, n=3.
Assay [8] addresses T2, CCR9 N-terminal peptide 1 (TPTDFTSPIPNMADDYGSESTSS) (human, biotinylated in the ELISA of Example 2 (site not stated)).
T2 construct: Biotin is stated for the ELISA; also called N-terminal 1; biotinylated peptide from the N-terminal region of huCCR9
T2 peptide: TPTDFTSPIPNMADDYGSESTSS
In words: ELISA, plate coated with biotinylated CCR9 N-terminal peptide 1, anti-human Fc detection, n=2.

For assay [9], the target named is T1, human CCR9 (C-C chemokine receptor type …). Briefly: flow cytometry on MOLT-4 cells, pHrodo-labeled antibody, n=1.
For assay [10], the target named is T3, N-terminal 6 (SPIPNMADDYG) (human).
T3 construct: also called peptide N-terminal 6
T3 peptide: SPIPNMADDYG
In words: peptide inhibition: 1 µg/mL antibody pre-incubated with 100 µg/mL peptide, then binding to MOLT-4 cells by flow cytometry.

The target in assay [11] is T1, human CCR9 (C-C chemokine receptor type …). In words: screen of murine hybridoma antibodies for affinity to CCR9 (ELISA, then flow cytometry); format not detailed. For orientation: In an ELISA, binding on a coated surface is turned into a signal by an enzyme label.
The target of assay [12] is T4, hCCR9 peptide P11A-N12A (human).
T4 peptide: TDFTSPIAAMADDYGSEST
Briefly: 2 x Ala-scan with substituted hCCR9 peptides (Fig. 9A).

Assay [13] deals with T5, hCCR9 peptide N12A-M13A (human).
T5 peptide: TDFTSPIPAAADDYGSEST
Described as above.

Assay [14] concerns the target T6, hCCR9 peptide M13A-A14G (human).
T6 peptide: TDFTSPIPNAGDDYGSEST
The assay is described as above.

Assay [15] addresses T7, hCCR9 peptide D15A-D16A (human).
T7 peptide: TDFTSPIPNMAAAYGSEST
Described as above.

The target of assay [16] is T8, hCCR9 peptide D16A-Y17A (human).
T8 peptide: TDFTSPIPNMADAAGSEST
The description is as above.

Assay [17] addresses T4, hCCR9 peptide P11A-N12A. In words: 2 x Ala-scan with substituted hCCR9 peptides (Fig. 9B).
Assay [18] addresses T5, hCCR9 peptide N12A-M13A. Described as above.
The target of assay [19] is T6, hCCR9 peptide M13A-A14G. Described as above.
Assay [20] deals with T7, hCCR9 peptide D15A-D16A. The assay is described as above.
The target in assay [21] is T8, hCCR9 peptide D16A-Y17A. Described as above.

As a reminder, the EC50 is the concentration that produces a half-maximal response. Read a high EC50 as a less potent agent.

B1: SRB1 (antibody, V domains shown)
VH: EVQLVESGGGLVKPGGSLRLSCAASGFTFSKFWMNWVRQAPGKGLEWVGEIRLKSNNYATHYAESVKGRFTISRDDSKNTLYLQMNSLKTEDTAVYYCTSDGWFAYWGQGTLVTVSS
VL: DVQMTQSPSSLSASVGDRVTITCRSSQSLVHSNGNTYLNWYQQKPGKAPKLLIYKVSNRFSGVPSRFSGSGSGTDFTLTISSLQPEDFATYYCSQSTHFPRTFGGGTKVEIKR
notes: Detected with anti-human Fc, so it has a human Fc; also called humanised version of the antibody 92R; positive control
B1: in assay [1], the “EC50 of cytotoxicity (ADCC, specific lysis of CFSE-stained MOLT-4 cells), PBMC batch HN#1” value (from here on “EC50 of cytotoxicity … PBMC batch HN#1”) was 0.8 pM. Besides, the “EC50 of cytotoxicity (ADCC, specific lysis of CFSE-stained MOLT-4 cells), PBMC batch HN#2” value (“EC50 of cytotoxicity … PBMC batch HN#2” for short) in assay [1] stood at 0.003 nM. Further, the 50% effective concentration (EC50) in assay [2] stood at 0.07 nM; in assay [3], 0.02 nM; in assay [4] it was 0.05 nM; in assay [5], 0.05 nM; in assay [6], 0.04 nM; in [7] it was 0.04 nM. In [8], this molecule showed a concentration for a half-maximal effect (EC50) of 19.2 nM.

B2: SRB1 pHrodo (antibody, V domains shown)
VH: EVQLVESGGGLVKPGGSLRLSCAASGFTFSKFWMNWVRQAPGKGLEWVGEIRLKSNNYATHYAESVKGRFTISRDDSKNTLYLQMNSLKTEDTAVYYCTSDGWFAYWGQGTLVTVSS
VL: DVQMTQSPSSLSASVGDRVTITCRSSQSLVHSNGNTYLNWYQQKPGKAPKLLIYKVSNRFSGVPSRFSGSGSGTDFTLTISSLQPEDFATYYCSQSTHFPRTFGGGTKVEIKR
modifications: pHrodo fluorophore label (sites not given)
notes: also called pHrodo-labeled SRB1
With B2, the EC50 in assay [9] came out at 0.08 nM.

B3: huC9Mab-16-VL2 (antibody, V domains shown)
VH: EVQLVESGGGLVKPGGSLRLSCAASGFTFSDYWMNWVRQAPGKGLEWVGEIRSKSKNYATHYEESVRGRFTISRDDSKNTLYLQMNSLKTEDTAVYYCMFFYSPYWGQGTLVTVSS
VL: DVVMTQSPSSLSASVGDRVTITCRSSQSLVHSNGITFLHWYQQKPGKAPKLLIYKVSNRFSGVPSRFSGSGSGTDFTLTISSLQPEDFATYYCSQTTHVPWTFGGGTKVEIK
notes: Humanized IgG made in HEK293-6E cells
Regarding B3, the “EC50 of cytotoxicity … PBMC batch HN#1” value in assay [1] was found to be 5 pM. In addition, the “EC50 of cytotoxicity … PBMC batch HN#2” value in assay [1] turned out to be 0.01 nM. The EC50 amounted to 0.27 nM in assay [2]; 0.4 nM in [3]; 0.25 nM in [4]; 0.4 nM in assay [5]; 0.24 nM in assay [6]; 0.1 nM in assay [7]. In [8], this molecule yielded an EC50 of 0.546 nM. Besides, in [10], the binding result is given as “binds”.

B4: huC9Mab16-VL2 pHrodo (antibody, V domains shown)
VH: EVQLVESGGGLVKPGGSLRLSCAASGFTFSDYWMNWVRQAPGKGLEWVGEIRSKSKNYATHYEESVRGRFTISRDDSKNTLYLQMNSLKTEDTAVYYCMFFYSPYWGQGTLVTVSS
VL: DVVMTQSPSSLSASVGDRVTITCRSSQSLVHSNGITFLHWYQQKPGKAPKLLIYKVSNRFSGVPSRFSGSGSGTDFTLTISSLQPEDFATYYCSQTTHVPWTFGGGTKVEIK
modifications: pHrodo fluorophore label (sites not given)
notes: also called pHrodo-labeled huC9Mab16-VL2
Turning to B4, in [9], it took 0.51 nM to reach a half-maximal effect (EC50).

B5: huC9Mab-19-VL2 (antibody, V domains shown)
VH: EVQLVESGGGLVKPGGSLRLSCAASGFTFSNYWMDWVRQAPGKGLEWVGEIRSKSNNYATHYAESMKGRFTISRDDSKNTLYLQMNSLKTEDTAVYYCAFYYSPYWGQGTLVTVSS
VL: DVVMTQSPSSLSASVGDRVTITCRSSQSLLHSNGNTFLHWYQQKPGKAPKLLIYKVSNRFSGVPSRFSGSGSGTDFTLTISSLQPEDFATYYCSQTTHLPWTFGGGTKVEIK
notes: as for B3
With B5, in assay [1], the “EC50 of cytotoxicity … PBMC batch HN#1” value amounted to 230 pM. The “EC50 of cytotoxicity … PBMC batch HN#2” value in assay [1] turned out to be 0.06 nM. Besides, the EC50 in assay [2] came out at 0.6 nM; in assay [3] it was 2.04 nM; in assay [4], 2 nM; in assay [5], 1.86 nM; in assay [6], 0.59 nM; in assay [7], 0.92 nM. In addition, in [8], the midpoint of the response, the EC50, lay at 14.1 nM. Besides, the binding result in assay [10] is on record as “binds”.

B6: huC9Mab19-VL2 pHrodo (antibody, V domains shown)
VH: EVQLVESGGGLVKPGGSLRLSCAASGFTFSNYWMDWVRQAPGKGLEWVGEIRSKSNNYATHYAESMKGRFTISRDDSKNTLYLQMNSLKTEDTAVYYCAFYYSPYWGQGTLVTVSS
VL: DVVMTQSPSSLSASVGDRVTITCRSSQSLLHSNGNTFLHWYQQKPGKAPKLLIYKVSNRFSGVPSRFSGSGSGTDFTLTISSLQPEDFATYYCSQTTHLPWTFGGGTKVEIK
modifications: pHrodo fluorophore label (sites not given)
notes: also called pHrodo-labeled huC9Mab19-VL2
In the case of B6, in assay [9], the EC50 was found to be 2.05 nM.

B7: IAb01 (antibody, V domains shown)
VH: EVKVEESGGGLVQPGGSMKLSCVVSGLTFSNFWMTWVRQSPEKGLEWVAEIRLKSNNYATHYAESVKGRFTISRDDSRSSVFLQMNNLRAEDTGIYYCTTDGWFAFWGQGTLVTVSA
VL: QIVLTQSPTIMSASPGEKVTITCSASSSVSYMHWFQQKPGTSPKLWIYSTSNLASGVPARFSGSGSGTSYSLTISRMEAEDAATYYCQQRSSYPFTFGSGTKLEIKR
notes: Murine antibody
As to B7, the binding result in assay [11] was “binds”.

B8: IAb02 (antibody, V domains shown)
VH: EVKVEESGGGLVQPGGSMKLSCAASGFIFSNFWMNWVRQSPEKGLEWIAEIRLKSNNYATHYAESVKGRFTISRDDSKSSVYLQMNNLRAEDTGIYYCATDGWFAFWGQGTLVTVSA
VL: DVVMTQTPLSLPVSLGDQASISCRSSQSLVHSNGNTYLQWHLQKPGQSPKFLIYKVSNRFSGVPDRFSGSGSGTDFTLKISRVEAEDLGVYFCSQSTHVPRTFGGGTKLEIKR
notes: Murine antibody
For the molecule B8, the binding result in assay [11] is “binds”.

B9: C9Mab-16 (antibody, V domains shown)
VH: EVKLEESGGGLVLPGGSMKLSCVASGFTFSDYWMNWVRQSPEKGLEWVAEIRSKSKNYATHYEESVRGRCTISRDDSKSSVYLQMNNLRAEDTGIYFCMFFYSPYWGQGTLVTVSA
VL: DVVMTQTPLSLPVSLGDQASISCRSSQSLVHSNGITFLHWYLQKPGQSPKLLIYKVSNRFSGVPDRFSGSGSGTDFTLKISRVEAEDLGVYFCSQTTHVPWTFGGGTKLEIKR
notes: Murine parental antibody from hybridoma; also called C9M16; clone 16
With B9, the binding result with hCCR9 peptide P11A-N12A [12], with hCCR9 peptide N12A-M13A [13], in the assay with hCCR9 peptide M13A-A14G [14], with hCCR9 peptide D15A-D16A [15] and with hCCR9 peptide D16A-Y17A [16] was “no binding” each time.

B10: C9Mab-19 (antibody, V domains shown)
VH: EVKLEESGGGLVQPGGSMKLSCVASGFTFSNYWMDWVRQSPEKGLEWVAEIRSKSNNYATHYAESMKGRFTISRDDSKSSVYLQMINLRTEDTGIYYCAFYYSPYWGQGTLVTVSA
VL: DVVMTQTPLSLPVSLGDQASISCRSSQSLLHSNGNTFLHWYLQKPGQSPKLLIYKVSNRFSGVPDRFSGSGSGTDFTLKVSRVEAEDLGVYFCSQTTHLPWTFGGGTKLEIKR
notes: Murine parental antibody from hybridoma; also called C9M19; clone 19
Regarding B10, the binding result in the assay with hCCR9 peptide P11A-N12A [17], with hCCR9 peptide N12A-M13A [18], with hCCR9 peptide M13A-A14G [19], in the assay with hCCR9 peptide D15A-D16A [20] and with hCCR9 peptide D16A-Y17A [21] was “no binding” each time.

These data come from patent EP4578874A1 (SunRock Biopharma S.L., dated 2025).
